Measured values reported in the nanobody polyreactivity screen of Harvey et al. (2022).

Assay: yeast display, Sf9 membrane polyspecificity reagent, FACS + sequencing; frameworks hold sequencing errors
In short: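 Galactose-induced (36–48 hours) yeast carrying a synthetic nanobody display library were exposed to 10% biotinylated, detergent-solubilized Sf9 membrane reagent at 4 °C for 1 hour. FACS followed streptavidin microbead enrichment, using low and high (top ~1%) gates for expression (anti-HA) and reagent binding (streptavidin). Colony PCR, MiSeq 2 × 250 sequencing and CDR-length filtering followed. Labels for polyreactivity reflect the gate of origin.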

## QVQLVESGGGLVQAGGSLRLSCAASGRNFLYNAMGWYRQAPGKERELVAAISGGSTNYADSVKGRFTISRDNAKNTVYLQMHSLKPEDTAVYYCAARYLRRYNWGQGTQVSVSS
  polyreactivity (PSR sort gate): high polyreactivity

## QVQLVESGGGLVQAGCSLRLSCAASGRIFRKNTMGWYIQAPGKEWELVAAISFRGASTYYADSVKGRFTISRDNAKNTVYLQMNSLKPEDTAVYYCATVRAHASRLGYDYWGQGTQVTVSS
  polyreactivity (PSR sort gate): high polyreactivity

## QVQLVESGGGLVQAGGSLRLSCAASGSTFNPYAMGWYRQAPGKERELLAAITWSSDDTYYADSVKGRFTISRDNAKNTVYLQMNSLKPEDTAVYYCAADVIGDLRWYGDEYWGQGTQVTESS
  polyreactivity (PSR sort gate): low polyreactivity

## QVQLVESGGGLVQAGGSLRLSCAASGRTFSGYAMGWYRQAPGKERELVAGITWNGGRTYYADSVKGRFTISRDNAKNTVYLQMNILKPDDTAVYYCYKLGAVYPKYGYWGQGTQVTVSS
  polyreactivity (PSR sort gate): high polyreactivity

## QVQLVESGGGLVQAGGSLRLSCAASGIILGLNVMGWYRQAPGKERELVATITRRGGSTFYADSVKGRFTISRDNAKNTVYLQMNSLKPEDTAVYYCNAEQWIWHHLTVQGFDYWGQGTQVTVSS
  polyreactivity (PSR sort gate): high polyreactivity

## QVQLVESGGGLVQAGGSLRLSCAASGITFVYYTMGWYRQAPGKERELVASITWDGGSTYYADSVKGRFTISRDNAKNTVYLQMNSLKPEDTAVYYCNRDRVSGGKYNYWGQGTQVTVSS
  polyreactivity (PSR sort gate): low polyreactivity

## QVQLVESGGGLVQAGGSLRLSCAASGSTIPPNAMGWYRQAPGKERELVAVISNGGSNTRYADSVKGRFTISRDNAKNTVYLQMNRLKPEDTAVYYCAADYEYSGYGYWGQGTQVTVSS
  polyreactivity (PSR sort gate): high polyreactivity

## QVQLVESVVGLVQAGGSLRLSCAASGRIFAYYAMGWYRQAPGKERELVAAISSSGGGTYYADSVKGRFTISRDNAKNTVYLQMNSLKPEDTAVYYCAKRVRRKYSVSHPYDYWGQGTQVTVSS
  polyreactivity (PSR sort gate): high polyreactivity

## QVQLVESGGGLVQAGGSLRLSCAASGSTSVYYAMGWYRQTPGKERELVAAITWDDGSTSYADSVKGRFTISRDNAKNTVYLQMNSLKPEDTAVYYCAKDYEYLGAFNYWGQGTQVTVSS
  polyreactivity (PSR sort gate): low polyreactivity

## QVQLVESGGGLVQAGGSLRLSCAASGRIFRRYTMGWSRQAPGKERELVAAISSGGSTNYADSVKGRFTISRDNANNTVYLQMNSLKPEDTAVYYCAARFASRQHTIYYYWGQGTQVTVSS
  polyreactivity (PSR sort gate): high polyreactivity

## QVQLVESGGGLVQAGGRLRLSCAASGRTFTSNAMGWYRQAPGKERELVAAIDDGGSTNYADSVKGRFTISRDNAKNTVYLQMNSLKPEDTAVYYCNAPITWQYRGFRRRFDYWGQGTQVTVSS
  polyreactivity (PSR sort gate): low polyreactivity

## QVQLVESGGGLVQAGGSLRLSCAASGRIFRYYAMGWSRQAPGKERELVAAITSDGRTYYADSVKGRVTISRDNAKNTVYLQMNSLKPEDTAVYYCAADHHSYRYGGYYYWGQGTQVTVAS
  polyreactivity (PSR sort gate): low polyreactivity

## QVQLVESGGGLVQAGGSLRLSCAASGITSVDYAMRWYRQAPGKERELVAAITWSDSSTYYADSVKGRFTISRDNAKNTVYLQMNSLKPEDTAVYYCAAEYYFWGWEFDYWGQGTQVTVSS
  polyreactivity (PSR sort gate): high polyreactivity

## QVQLVESGGGLVQAGGSLRLSCAASGSIFRGYGMGWYRQAPGKERELVAANNYSGGSTYYADSVKGRFTISRDNAKNTVYLQMNSLKPEDTAVYYCNKVYYRQRGEYYYWGQGTQVTVSS
  polyreactivity (PSR sort gate): high polyreactivity

## QVQLVESGGGIVQAGGSLRLSCAASGSTSGSYGMGWYRQAPGKERELVAAIRWSGGRTYYADSVKGRFTISRDKAKNTVYLQMNSLKPEDTAVYFCAKFRYTVSGYNYWGQRTQVTVSS
  polyreactivity (PSR sort gate): high polyreactivity

## QVQLVESGGRLVQAGGSRRLSCAASGFTFGIYAMGWYRQAPGKARELVAAITSGGITKYADSVKGRFTISRDNAKNTVYLQMKSLKPEDTAVYYCAATGFRQSYDSTWYRYDYWGQGTQVTVSS
  polyreactivity (PSR sort gate): low polyreactivity

## QVQLVESGGGLVQAGGSLRLSCAASGRIFQYYAMGWYRQAPGKERELVAAITRSGGSTYYADSVNGRFTISRDNAKNTVYLQMNSLKPEDTAVYYCARTYWITNSKFRDYLGAYGGEYWGQGTQVTVSS
  polyreactivity (PSR sort gate): high polyreactivity

## QVQLVESGGGIVQAGGSLRLSCAASGIIFQTYAKGWYRQAPGKERELVAAISRSGGSTYYADSVKGRFTISRENSKNTVYLQMNSLKPEDTAVYYCAAYGYNVNWLKGIYWGQGTQVTVSS
  polyreactivity (PSR sort gate): high polyreactivity

## QVQLVESGGGLVQAGGSLRLSCAASGFTFTEYTMGRYRQAPGKERELVATISWSGGSTYYADSVKGRFTISRDNAKNTVYLQMNSLKPEDTAVYYCAKDQWPWVRDSLYTLRYDYWGQGTQVTVSS
  polyreactivity (PSR sort gate): low polyreactivity

## QVQLVESGGGLVQAGGSLRLSCAASGRTFTPYTMGWYRQAPGKEREFVAAITFRGGSTYYADSVKGRFTLSRDNAKNTVYLQMNSLKPEDTAVYYCNARGHGGWGTSMYYWGQGTQVTVSS
  polyreactivity (PSR sort gate): high polyreactivity

## QVQLEESGGGLVQAGGSLRLSCAASGRTSRSYTMGWYRQAPGKERELVAAITRGGRTYYADSVKGRFTISRDNANNTVYLQMNSLKPEDTAVYYCDTVRVQSYGYWGQGTQVTVSS
  polyreactivity (PSR sort gate): low polyreactivity

## QVQLVESGGGLVQPGGILRLSCAASGYTFQVYAMGWYRQAPGKEREMVASIRWRGGRTYYADSVKGRFTISRDNAKNTVYLQMNSLKPEDTAVYYCAARQYVIYQTYYTYYYWGQGTQVSVSS
  polyreactivity (PSR sort gate): high polyreactivity

## QVQLVESGGGLVQAGGSLRLSCAPSGTTFTRNAMGWYREAPGKERELVAAISFSGGSTYYADSVKGRFTISRDNAKNTVYIQMNSLKPEDTAVYYCATKVEYRYYYWGQGTQVTVSS
  polyreactivity (PSR sort gate): high polyreactivity

## QVQLVESGGGLVQAGGSLRLSCAASGIFTRYAMGWYRQAPGKERELVAAISRGGGSTYYADSVKGLFTISRDNAKNTCYLQMNSLKPEDTAVYYCNTYKRPRSPGPKFYYWGEGTQVTVSS
  polyreactivity (PSR sort gate): high polyreactivity

## QVQLVESGGGLVQAGGSLRLSCAASGSIIGRYAMGWYRQAPGKERELVAAISKNGGSRYYADSVKGRFTISRDNAKNTVYLQMNSLKPEDTAVYYCNTVRYSCNYRDQEGDYWGQGTQVTVSS
  polyreactivity (PSR sort gate): high polyreactivity

## QVQLVESGGGLVQAGGSLRFSCAASGSTFAYNDMGWYRQAPGKERELVADIRSGGNTNYADSVKGRFTISRDNAKNTVYFQMNSLKPEDTAVYYCATDGYRIDVYHPDYRYDYWGQGTQVTVSS
  polyreactivity (PSR sort gate): low polyreactivity

## QVQLVESGGGLFQAGGSLGLSCAASGSTFSKYAMGWSRQAPGKERELVAAISSGGRTNYADSVKGRFTISRDNAKNTVYLHMNSLKPEDTAVYDCAALWGYWAYYYWGQGTQVTVSS
  polyreactivity (PSR sort gate): low polyreactivity

## QVQLVESGGGLVQAGGSLRLSCAASGIIFVSYDMGWYRQAPGKERELVAAINRGGRTYYADSVKGRFTISRDNAKNTDYLQMNSLKPEDTAVYYCAAQFHFRPFSWTYDYWGQGTQVTVSS
  polyreactivity (PSR sort gate): high polyreactivity

## QVQLVESGGGLVQAGGSLRLSCAASGRTFTYNTMGWYRQAPGKERELVAAISSSGGSTYYADSVKGRFTISRDNAKNTVYLKMNCLKPEDTAVYYCAKRYFSSSRYYYWGQGTKVTVSS
  polyreactivity (PSR sort gate): high polyreactivity

## QVQLVESGGGLVQAGGSLRLSCAACGSIFRRYAMGWYRQAPGKERELVASIRGGGGTYYADSVKGRFTISRDNAKNTVYLQMNSLKPEDTAVYYCAATRYLAYFRKSFYYWGQGTQVTVSS
  polyreactivity (PSR sort gate): high polyreactivity

## QVQLVESGGGLVQAGGSLRLSCAASGSIFIAYGMGWYRQEPGKERELVAAITVSGGNTYYADSVKGRFTISRDNAKNTVYLQMYSLKPEDTAVYYCADVTYWQDGHRGNYWGQGTQVTVSS
  polyreactivity (PSR sort gate): low polyreactivity

## QDQLVESGGGLVQAGGSLRLSCAASGRIFDDTAMGWSRPAPGKERELVAAITGGGRTNYADSVKGRFTISRDNAKNTVYLQMNSLKPEDTAVYYCAAATYGWVIYIYDYWGQGTQVTVSS
  polyreactivity (PSR sort gate): low polyreactivity

## QVQLVESGGGLVQAGGSLRLSCAASGIIFNDYAMGWYRQAPGKERELVAAISWSGGRTYYADSVKGRFTISRDNAKNTVYLQMNSLKPEDTAVYYCNARARQYSAFPVVERNYWGQGTQVTVSS
  polyreactivity (PSR sort gate): high polyreactivity

## QVQLVESGGGLVQAGGSLRLSCAASGSTFNYYAMGWYRQAPGKERELVAGITWRGRTYYADSVKGRFTISRDNAKNTVYLQMNSLKPEDTAVYYCAARQGTYGYWGQGTQVTVSS
  polyreactivity (PSR sort gate): high polyreactivity

## QVQLVESGGGLVQAGGSLRLSCAASGSIFPDYAMGWYRQAPGKERELVAAITWRDDSSYYADSVKGRFTISRDNAKNTVYLQMNSLKPEDTAVYYCNASALDPLYAKDDYWGQGTQVTVSS
  polyreactivity (PSR sort gate): low polyreactivity

## QVQLVESVGGLVQAGGSLRLSCAASGFTFVGNTMGWYRQAPGKERELVAAIRGRDGRTYYADSVKGRFTISRDNAKNTVYLQMNSLKPEDTAVYYCNVDVKYSVRSEFDFWGQGTQVTVSS
  polyreactivity (PSR sort gate): low polyreactivity

## QVQLVESGGGLVQAGGSLRLSCAASGFTFWKYAMGWYRQAPGKERELVAAISVSGGRTYYADSVKGRFTISRDNAKNTVYLQMNSLKPEDTAVYYCNATPWRPYVGGEYWGQGTQVTVSS
  polyreactivity (PSR sort gate): high polyreactivity

## QDQLVESGGGLVQAGGSLRLSCAASGYTFSYYAMGWYRQAPGKERELVARISWGGGSTYYADSVKGRFTISRDNAKNTVYLQMNSLKPEDTAVYYCNARDLGRDWYWPEDDYWGQGTQVTVSS
  polyreactivity (PSR sort gate): low polyreactivity

## QVQLVESGGGLVQAGGSLRLSCAASGSIYGRNAMGWYRQAPGKERELFAAISSSGGRTYYADSVKGRFTISRDNAKNTVYLQMNSLKPEDTAVYYCAADASYARYYSQYDYWGQGTQVTVSS
  polyreactivity (PSR sort gate): high polyreactivity

## QVQVVESGGALVQAGGSLRLSCAASGRIFSPYAMGWYRQAPGKESELVAAITSASSTYYADSVKGRFTISRDNAKNTVYLEMNRLKPEDTAVYYCAASYWRYGSAFDYWGQGTQVTVSS
  polyreactivity (PSR sort gate): high polyreactivity

## QVQLVESGGGLVQAGGSLRLSCAASGRTFFTYAMGWYRQAPGKERELVAAITWSGGSTYYADSVKGRFTISRDNAKNTVYLQMNSLKPEDTAVYYCAADGSVAYYSAFGSVQIWYYYWGQGTQVTVSS
  polyreactivity (PSR sort gate): low polyreactivity

## QVQLVESGGGLVQAGGSLRLSCAASGRIFVPNAMGWYRQAPGKERELVARISRSDGSTYYADSVKGRFTISRDNAKNTVYFPMNSLKPEDTAVYYCAASTTPRWWSFKYYYWGQGTQVTVSS
  polyreactivity (PSR sort gate): high polyreactivity

## QGQLVESGGGLGQAGGSLRLSSAASGRTFGRYAMGWYRQAPGNERELVAAISYSTDSTYYADSVKGRFTISRDNAKNTVYLQMNSLKPEDTAVYYCATDSVNVGSYVGDKHDYWGQGSQVTVSS
  polyreactivity (PSR sort gate): low polyreactivity
